The source of these data is the supplement of paper PMC5998384.

The subject of series [1] is HeLa Kyoto. Nature of the series: solubility change mitosis vs G1/S (difference of NP-40 vs SDS log2 ratios) (log2 ratio difference); higher = more soluble in mitosis.
Series [2] concerns HeLa Kyoto. Nature of the series: thermal stability score vs G1/S (z-score of summed log2 fold changes over temperatures); higher = more thermally stable than in G1/S.
The subject of series [3] is HeLa Kyoto. Nature of the series: melting temperature (median over replicates), in situ; higher = more thermally stable.
The test system of series [4] is HeLa Kyoto. Nature of the series: solubility in G1/S (NP-40 vs SDS abundance) (log2 ratio); higher = more soluble. Particulars: cell cycle stage: G1/S.
The mark [5] stands for this setting: cell cycle stage: early G1 (4.5 h after nocodazole release).
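Throughout, for melting temperature (median over replicates), in situ: HeLa Kyoto cells synchronized by double thymidine or nocodazole block, proteins quantified by TMT10plex mass spectrometry, three independent biological replicates.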
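Throughout, for solubility change mitosis vs G1/S (difference of NP-40 vs SDS log2 ratios): synchronized HeLa Kyoto cells (double thymidine block for G1/S, nocodazole release for mitosis), protein amounts in NP-40 versus SDS lysates quantified by mass spectrometry, three biological replicates.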
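Throughout, for solubility in G1/S (NP-40 vs SDS abundance): HeLa Kyoto cells arrested at G1/S by double thymidine block, proteins quantified by TMT10plex mass spectrometry in mild NP-40 versus SDS extracts, three biological replicates.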
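Throughout, for thermal stability score vs G1/S (z-score of summed log2 fold changes over temperatures): synchronized HeLa Kyoto cells, proteins quantified by TMT10plex mass spectrometry, three biological replicates, mitosis taken 0.5 h after nocodazole release, G1/S directly after double thymidine block.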

With “MEELLRRELGCSSVRATGHSGGGCISQGRSYDTDQGRVFVKVNPKAEARRMFEGEMASLTAILKTNTVKVPKPIKVLDAPGGGSVLVMEHMDMRHLSSHAAKLGAQLADLHLDNKKLGEMRLKEAGTVGRGGGQEERPFVARFGFDVVTCCGYLPQVNDWQEDWVVFYARQRIQPQMDMVEKESGDREALQLWSALQLKIPDLFRDLEIIPALLHGDLWGGNVAEDSSGPVIFDPASFYGHSEYELAIAGMFGGFSSSFYSAYHGKIPKAPGFEKRLQLYQLFHYLNHWNHFGSGYRGSSLNIMRNLVK [FN3KRP]”, the “solubility change mitosis (log2)” value with HeLa Kyoto [1] was determined as 0.00242. The thermal stability score in the series on HeLa Kyoto [2] (setting [5]) was -1.05; with HeLa Kyoto [2] (cell cycle stage: mitosis), -2.45. In addition, the melting temperature in the series with HeLa Kyoto [3] (cell cycle stage: G1/S) came to 61.1 °C; in the series on HeLa Kyoto [3] (cell cycle stage: mitosis), 58.3 °C. Besides, in the series with HeLa Kyoto [4], the “solubility in G1/S (log2)” value turned out to be 0.12.

Take “MSNSRPRSRRDAGGGAGAAGRDELVSRSLQSAEHCLGVQDFGTAYAHYLLVLSLAPELKHDVKETFQYTLFRWAEELDALSRIQDLLGCYEQALELFPDDEVICNSMGEHLFRMGFRDEAAGYFHKAVKLNPDFSDAKENFYRVANWLVERWHFIMLNDTKRNTIYNAAIQKAVCLGSKSVLDIGAGTGILSMFAKKAGAHSVYACELSKTMYELACDVVAANKMEAGIKLLHTKSLDIEIPKHIPERVSLVVTETVDAGLFGEGIVESLIHAWEHLLLQPKTKGESANCEKYGKVIPASAVIFGMAVECAEIRRHHRVGIKDIAGIHLPTNVKFQSPAYSSVDTEETIEPYTTEKMSRVPGGYLALTECFEIMTVDFNNLQELKSLATKKPDKIGIPVIKEGILDAIMVWFVLQLDDEHSLSTSPSEETCWEQAVYPVQDLADYWIKPGDHVMMEVSCQDCYLRIQSISVLGLECEMDVAKSFTQNKDLLSLGNEAELCSALANLQTSKPDAVEQTCILESTEIALLNNIPYHEGFKMAMSKVLSSLTPEKLYQTMDTHCQNEMSSGTGQSNTVQNILEPFYVLDVSEGFSVLPVIAGTLGQVKPYSSVEKDQHRIALDLISEANHFPKETLEFWLRHVEDESAMLQRPKSDKLWSIIILDVIEPSGLIQQEIMEKAAISRCLLQSGGKIFPQYVLMFGLLVESQTLLEENAVQGTERTLGLNIAPFINQFQVPIRVFLDLSSLPCIPLSKPVELLRLDLMTPYLNTSNREVKVYVCKSGRLTAIPFWYHMYLDEEIRLDTSSEASHWKQAAVVLDNPIQVEMGEELVLSIQHHKSNVSITVKQ [PRMT9]”: the “solubility change mitosis (log2)” value in the series with HeLa Kyoto [1] is -0.0806. In addition, the thermal stability score came to 0.367 in the series on HeLa Kyoto [2] (setting [5]) and 0.336 with HeLa Kyoto [2] (cell cycle stage: mitosis). In addition, the melting temperature is 50.8 °C in the series with HeLa Kyoto [3] (cell cycle stage: G1/S) and 51.1 °C with HeLa Kyoto [3] (cell cycle stage: mitosis). In addition, the “solubility in G1/S (log2)” value in the series on HeLa Kyoto [4] is -0.21.

For the sequence “MGGKLSKKKKGYNVNDEKAKEKDKKAEGAATEEEGTPKESEPQAAAEPAEAKEGKEKPDQDAEGKAEEKEGEKDAAAAKEEAPKAEPEKTEGAAEAKAEPPKAPEQEQAAPGPAAGGEAPKAAEAAAAPAESAAPAAGEEPSKEEGEPKKTEAPAAPAAQETKSDGAPASDSKPGSSEAAPSSKETPAATEAPSSTPKAQGPAASAEEPKPVEAPAANSDQTVTVKE [BASP1]”, the “solubility change mitosis (log2)” value in the series with HeLa Kyoto [1] came out at 0.98. The thermal stability score was -5.91 with HeLa Kyoto [2] (setting [5]) and -9.69 in the series on HeLa Kyoto [2] (cell cycle stage: mitosis). In addition, the melting temperature in the series on HeLa Kyoto [3] (cell cycle stage: G1/S) was determined as 48.2 °C. Also, in the series on HeLa Kyoto [4], the “solubility in G1/S (log2)” value is -1.08.

“MRRFLRPGHDPVRERLKRDLFQFNKTVEHGFPHQPSALGYSPSLRILAIGTRSGAIKLYGAPGVEFMGLHQENNAVTQIHLLPGQCQLVTLLDDNSLHLWSLKVKGGASELQEDESFTLRGPPGAAPSATQITVVLPHSSCELLYLGTESGNVFVVQLPAFRALEDRTISSDAVLQRLPEEARHRRVFEMVEALQEHPRDPNQILIGYSRGLVVIWDLQGSRVLYHFLSSQQLENIWWQRDGRLLVSCHSDGSYCQWPVSSEAQQPEPLRSLVPYGPFPCKAITRILWLTTRQGLPFTIFQGGMPRASYGDRHCISVIHDGQQTAFDFTSRVIGFTVLTEADPAATFDDPYALVVLAEEELVVIDLQTAGWPPVQLPYLASLHCSAITCSHHVSNIPLKLWERIIAAGSRQNAHFSTMEWPIDGGTSLTPAPPQRDLLLTGHEDGTVRFWDASGVCLRLLYKLSTVRVFLTDTDPNENFSAQGEDEWPPLRKVGSFDPYSDDPRLGIQKIFLCKYSGYLAVAGTAGQVLVLELNDEAAEQAVEQVEADLLQDQEGYRWKGHERLAARSGPVRFEPGFQPFVLVQCQPPAVVTSLALHSEWRLVAFGTSHGFGLFDHQQRRQVFVKCTLHPSDQLALEGPLSRVKSLKKSLRQSFRRMRRSRVSSRKRHPAGPPGEAQEGSAKAERPGLQNMELAPVQRKIEARSAEDSFTGFVRTLYFADTYLKDSSRHCPSLWAGTNGGTIYAFSLRVPPAERRMDEPVRAEQAKEIQLMHRAPVVGILVLDGHSVPLPEPLEVAHDLSKSPDMQGSHQLLVVSEEQFKVFTLPKVSAKLKLKLTALEGSRVRRVSVAHFGSRRAEDYGEHHLAVLTNLGDIQVVSLPLLKPQVRYSCIRREDVSGIASCVFTKYGQGFYLISPSEFERFSLSTKWLVEPRCLVDSAETKNHRPGNGAGPKKAPSRARNSGTQSDGEEKQPGLVMERALLSDERVLKEIQSTLEGDRGSGNWRSHRAAVGCSLSNGGAE [LLGL2]”: in the series with HeLa Kyoto [1], the “solubility change mitosis (log2)” value was -0.0143. Moreover, the thermal stability score was -1.83 in the series on HeLa Kyoto [2] (setting [5]) and -2.52 in the series with HeLa Kyoto [2] (cell cycle stage: mitosis). The melting temperature is 51.1 °C with HeLa Kyoto [3] (cell cycle stage: G1/S) and 51.5 °C with HeLa Kyoto [3] (cell cycle stage: mitosis). Besides, the “solubility in G1/S (log2)” value in the series on HeLa Kyoto [4] is -0.27.

On to “MQRRGALFGMPGGSGGRKMAAGDIGELLVPHMPTIRVPRSGDRVYKNECAFSYDSPNSEGGLYVCMNTFLAFGREHVERHFRKTGQSVYMHLKRHVREKVRGASGGALPKRRNSKIFLDLDTDDDLNSDDYEYEDEAKLVIFPDHYEIALPNIEELPALVTIACDAVLSSKSPYRKQDPDTWENELPVSKYANNLTQLDNGVRIPPSGWKCARCDLRENLWLNLTDGSVLCGKWFFDSSGGNGHALEHYRDMGYPLAVKLGTITPDGADVYSFQEEEPVLDPHLAKHLAHFGIDMLHMHGTENGLQDNDIKLRVSEWEVIQESGTKLKPMYGPGYTGLKNLGNSCYLSSVMQAIFSIPEFQRAYVGNLPRIFDYSPLDPTQDFNTQMTKLGHGLLSGQYSKPPVKSELIEQVMKEEHKPQQNGISPRMFKAFVSKSHPEFSSNRQQDAQEFFLHLVNLVERNRIGSENPSDVFRFLVEERIQCCQTRKVRYTERVDYLMQLPVAMEAATNKDELIAYELTRREAEANRRPLPELVRAKIPFSACLQAFSEPENVDDFWSSALQAKSAGVKTSRFASFPEYLVVQIKKFTFGLDWVPKKFDVSIDMPDLLDINHLRARGLQPGEEELPDISPPIVIPDDSKDRLMNQLIDPSDIDESSVMQLAEMGFPLEACRKAVYFTGNMGAEVAFNWIIVHMEEPDFAEPLTMPGYGGAASAGASVFGASGLDNQPPEEIVAIITSMGFQRNQAIQALRATNNNLERALDWIFSHPEFEEDSDFVIEMENNANANIISEAKPEGPRVKDGSGTYELFAFISHMGTSTMSGHYICHIKKEGRWVIYNDHKVCASERPPKDLGYMYFYRRIPS [USP13]”, for which the “solubility change mitosis (log2)” value with HeLa Kyoto [1] is -0.0974. Besides, the thermal stability score with HeLa Kyoto [2] (setting [5]) was 0.321; in the series on HeLa Kyoto [2] (cell cycle stage: mitosis), 0.746. For the same sequence, the melting temperature was 50 °C with HeLa Kyoto [3] (cell cycle stage: G1/S) and 50.2 °C in the series with HeLa Kyoto [3] (cell cycle stage: mitosis). The “solubility in G1/S (log2)” value in the series with HeLa Kyoto [4] was 0.0742.
